Laboratory results from the supplement of paper PMC9170038.

Tested on: MS2 coat protein
Assay: apparent KD of MS2 coat protein; higher = weaker reporter binding
Conditions: Eterna round: R107
Protocol: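 RNA-MaP round R107: designed RNA switches with theophylline, tryptophan, arginine or FMN aptamers are transcribed on-chip within common flanks. They are titrated with SNAP-549-labelled MS2 coat protein in RNA-MaP buffer (100 mM Tris pH 7.5, 80 mM KCl, 4 mM MgCl2), without ligand or with the indicated ligand. Median apparent KD per design.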

[1] = input ligand: theophylline 20 uM
[2] = input ligand: theophylline 2 mM
[3] = input ligand: tryptophan 2.4 mM

Sequence	apparent KD of MS2 coat protein (input ligand: arginine 13.2 mM) [µM]	apparent KD of MS2 coat protein (input ligand: none) [µM]	apparent KD of MS2 coat protein [1] [µM]	apparent KD of MS2 coat protein [2] [µM]	apparent KD of MS2 coat protein [3] [µM]
ACCUGUACGAAAAGUGCAGGACACGGAUAACGAGGACCGGUACGGCCGCCACUCGGAAUAACCUGAGGAUCACCCUGGUACCGUG [TrypAS 8 #AlternativeMS2 #Zipper #StaticStem]	0.0258	0.0187	0.024	0.0232	0.019
ACCUUACAUGAGGAUCACCCAUGUCGUGAUACCAGAAACCACGUAUUCCCUUGGCAGCACACCCGUGAUGAGAUUGUCGGUUUUG [theeternabot_sameState_MS2_Theo_A_43]	0.0422		0.0863		0.0492
ACGAACGAUAGUGAUACCAGACGAACAUGAGGAUCACCCAUGUUAUACACAUGGUUUAUUGUCCCUUGGCAGCACUUUAAGUUCG [JR_ExcTheophyB_Sub006]	0.0801		0.139		0.146
ACGAACGAUAGUGAUACCAGACGUACAUGAGGAUCACCCAUGUUAUACACAUGGUUUAUUGUCCCUUGGCAGCACGAUAAGUUCG [JR_ExcTheophyB_Sub004]	0.109		0.263		0.282
ACGACGCAUAGUGAUACCAGUACAACAUGAGGAUCACCCAUGUCACAUAUGUUGUAAUAGUGCCCUUGGCAGCACUAUGCGUCAG [SSTheo B #3]	0.0944		0.106		0.125
ACGACGCAUAGUGAUACCAGUAGAACAUGAGGAUCACCCAUGUCUGUGGCGCUCCGCCUCUGCCCUUGGCAGCACUAUGCGUCAG [SSTheo B #10]	0.0119		0.017		0.0114
ACGAUAGGACACGAGGAUCACCCGUGUGAUACCAGCCUGGAAACAGGCCCUUGGCAGCACAAAUACUCCAAUAACCUAUCGAAUA [TheoAX 10 #MicroSwitchBubble #AlternativeMS2]	0.0565	0.0963	0.183	0.569	0.106
ACGAUAGGGCAUGAGGAUCACCCAUGUGAUACCAGCCUGGAAACAGGCCCUUGGCAGCAUUAAUACUCCAAUAACCUAUCGAAUA [TheoAX 17 #MicroSwitchBubble #AlternativeMS2]	0.0915	0.129	0.184	0.864	0.111
ACGAUGCGACAUGAGGAUCACCCAUGUGAUACCAGCCUGGAAACAGGCCCUUGGCAGCACAAAUACUCCAGAAACGCAUCGAAUA [MAT - Exclusion Theophlline A - Mod of Eli - D3]	0.0963		0.356		0.348
ACGCGCAGCAGAAGGAGCGUCUUAAUUCUACAUGAGGAUCACCCAUGUUUACAUUGGAUAUGACAGGUAGGUCGCUGGUGUGCGA [#06 Same State - Arginine B]	0.0159	0.018	0.0181	0.0196	0.0156
ACGCUGAUUGAUUACAAUCAGCGAAAAGAUACCAGUGGGUAAUCCCACCCUUGGCAGCUUAAACAUGAGGAUCACCCAUGUGGUA [TheoAS 14 #MS2Right #BothOrNeither #AlternativeMS2]	0.0799		0.146		0.126
ACGUAAUGCAGAAGGAGCGUCUUAUGUAUACAUGAGGAUCACCCAUGUAAUAUGUGGUUGAGACAGGUAGGUCGCUGAAGUACGA [JR_SSArginiB_Sub009]	0.0469	0.086	0.0941	0.0784	0.0587
ACUAGUUGUGCAGAUACCAGACAUGAGGAUCACCCAUGUUUGGGUUGUUCGCAACUUCCUGUCCCUUGGCAGCUGUACAUCUAGA [Omei Theo B Exc v5]	0.0189		0.0469		0.0243
AGAAUAUAGUCGGCCGCCACUCUUCAUACAUGAGGAUCACCCAUGUUUAAUUCUUGGAUAUUCUUGAGGACCGGGACAUAGGCAU [JR_SSTryptoB_Sub019]	0.018		0.0231	0.0216	
AGACAUGAGGAUCACCCAUGUAGCAUGGAUACCAGAUGUAGAUUAGUCCCUUGGCAGCUGUGGUAAAGUGAUGCAUUGCUCCUAG [Exclusion - Theophylline A (Freestyle 3)]	0.0352		0.0553		0.0388
AGACAUGUAAGAUAAAUGACUUAUACAGAUACCAGACUGUCUAAUGUCCCUUGGCAGCUGCAUAACAUGAGGAUCACCCAUGUAA [JR_ExcTheophyA_Sub010]	0.0223		0.0242		0.0269
AGACCCUUCACGGCCGCCACUCAUUUUAAGUAGAGAGAGUACAUGAGGAUCACCCAUGUGAGAGAGAGGACCGGGUGAGAUAUUA [ss-trypB-0]	0.0139		0.0214	0.0213	
AGACUGUCUUCGGACAGUCCGGACAGCCCGCGAGGACCGGUACGGCCGCCACUCGCACGAGGAUCACCCGUGUGAGGCUGUCCGA [Omei Tryp A Exc A v2]	0.00987	0.0134	0.0172	0.0164	0.0145

Sequence	apparent KD of MS2 coat protein (input ligand: arginine 13.2 mM) [µM]	apparent KD of MS2 coat protein (input ligand: none) [µM]	apparent KD of MS2 coat protein [1] [µM]	apparent KD of MS2 coat protein [2] [µM]	apparent KD of MS2 coat protein [3] [µM]
AGCAACAAGUCGGCCGCCACUCAUUUAACAUGAGGAUCACCCAUGUGAAUAACAUGGUUGUAAUAGAGGACCGGGACAGUUGCAU [JR_SSTryptoB_Sub016]	0.205		0.283	0.401	
AGCACUGUGACGGCCGCCACUAUAUAUAGGGUGGUCAGGUUCAUAAUACAUGAGGAUCACCCAUGUAGGACCGGGUCUCAGUGCA [Omei Trp Exc B A v4]	0.0145	0.012	0.0149	0.0109	0.014
AGCACUGUGGCGGCCGCCACUACAUAUAGGGUGGUCAGGCCCAUAAUACAUGAGGAUCACCCAUGUAGGACCGGGCCUCAGUGCA [Omei Trp Exc B A v13]	0.0127		0.02	0.0165	
AGCCACUCGAACAUGGGUGACGAGUGGCAACGAGGACCGGUACGGCCGCCACUCGAAUAAACAUGAGGAUCACCCAUGUACAAAU [T''-M'-T'-T-MS2 - Design 9]	0.0331		0.146	0.355	
AGCGACAUGCAUGAUACCAGCUACAUGAGGAUCACCCAUGUACGUCAGUAAUGACUGUGUAGCCCUUGGCAGCAUAGAGCAUGUU [Exclusion - Theophylline B (Freestyle 15)]	0.0157		0.0293		0.0165
AGCGACAUGCGUGAUACCAGCUACAUGAGGAUCACCCAUGUACGUCAGAAAUGACUGUGUAGCCCUUGGCAGCAUAGUGCAUGUC [Exclusion - Theophylline B (Freestyle 20)]	0.0346		0.0542		0.0348
AGCUCGCAUCCUCUAGCGUCAAAGACGCGUCGAGGACCGGUACGGCCGCCACUCGACUUGAGGAACACCCAAGUCCUAGCGAGCA [TrypAX 12 #SwitchBubble #AlternativeMS2 #MS2Late #CuTurnoff]	0.0622	0.188	0.217	0.306	0.29
AGCUCGCGUCCUCAAGCGUCAAAGACGCGUCGAGGACCGGUACGGCCGCCACUCGACCUGAGGAUCACCCAGGUUUAAGCGAGCA [TrypAX 6 #SwitchBubble #AlternativeMS2 #MS2Late #CuTurnoff]	0.0127	0.0178	0.02	0.0181	0.115
AGGAAACAACAUGAGGAUCACCCAUGUGAUACCAGUAUCAAAAGAUACCCUUGGCAGCACACAUGACAUGAGGAUCACCCAUGUA [AstrosSSTheA#2]	0.0332		0.0524		0.0744
AGGACAUCGAGAAGGAGCGCAUCCAAACCACACAUGAGGAUCACCCAUGUAUAAAUAUGCAUGCAGGUAGGUCGCUCGGCGUCUU [Leanerin]	0.0575	0.099	0.121	0.0857	0.0874
AGGUGGCGCGGAAGGAGCGAGUUUGCCUAUUACAUGAGGAUCACCCAUGUGGGUAAUGGGACUCAGGUAGGUCGCCGUUGUCGCU [Same State Arginine B GF 27]	0.0356	0.0479	0.0915	0.0688	0.0615
AGGUGGGUCUGAAGGAGCGCGAUAACAUGAGGAUCACCCAUGUUAAAUGGUACAUGAUACUCGCAGGUAGGUCGCAGUAAAACCA [Same State Arginine B GF 12]	0.025	0.0844	0.0731	0.0938	0.0531
AGUAAUCUAUCAGAUACCAGACCCUCUUUAACAUGAGGAUCACCCAUGUCUAUGUUCUACGUCCCUUGGCAGCUGUAAAUGAUAA [JR_SSTheophyB_Sub002]	0.0349		0.08		0.0577
AGUCUUAAUGGAAGGAGCGCAGUCAUAACAUGAGGAUCACCCAUGUCGAGGUGAGGGUCAUUGCAGGUAGGUCGCCAUACUAAGA [Same State - Arginine B (Freestyle 3)]	0.125	0.199	0.22	0.265	0.245
AGUGACUACAUCUGGAAUUAAGGUAGGGAAGGAGCGCGGUAAGACGCAGGUAGGUCGCCCUACAUGAGGAUCACCCAUGUGAUGU [XARG-A 28]	0.0755	0.354	0.264	0.331	0.232
AGUGGGUGUUAUGAUACCAGCGUAAUACACAACAUGAGGAUCACCCAUGUGGAGCCUCGCCGCCCUUGGCAGCAUUGGGCCCGCA [theeternabot_sameState_MS2_Theo_B_4]	0.115		0.237		0.223
AUAAAUAAUAAAUAUAAUAAAGUGGGUGAACGAGGACCGGUACGGCCGCCACUCGGACAUGAGGAUCACCCAUGUCCAUGUGAAA [AstrosExtTry#3]	0.00994	0.0173	0.0191	0.0193	0.0401
AUAACAGUGUCGGCCGCCACUAGAACACAUGAGGAUCACCCAUGUGGUGGUACCUCCUAAGACGAUAGGACCGGGACCCAUCUAC [theeternabot_exclusion_MS2_Trp_B_12]	0.0504		0.108	0.143	
